ChEMBL document CHEMBL1146070, “Investigating the role of stereochemistry in the activity of anticancer acylfulvenes: synthesis, reductase-mediated bioactivation, and cellular toxicity” (J Med Chem, 2006)

Columns and labels:
[1] = substrate: CC1=C(CO)C2=C(C)C3(CC3)[C@@](C)(O)C(=O)C2=C1; experiment: (§1) Affinity towards rat NADP-dependent AOR, leukotriene B4 12-hydroxydehydrogenase
[2] = substrate: CC1=C(CO)C2=C(C)C3(CC3)[C@](C)(O)C(=O)C2=C1; experiment: as §1
[3] = substrate: CC1=CC2=C(C)C3(CC3)[C@@](C)(O)C(=O)C2=C1; experiment: as §1
[4] = substrate: CC1=CC2=C(C)C3(CC3)[C@](C)(O)C(=O)C2=C1; experiment: as §1

B1: Prostaglandin reductase 1 (Rattus norvegicus), P97584 (protein)
chain: MVQAKTWTLKKHFEGFPTDSNFELRTTELPPLNNGEVLLEALFLSVDPYMRVAAKKLKEGDSMMGEQVARVVESKNSAFPTGTIVVALLGWTSHSISDGNGLRKLPAEWPDKLPLSLALGTVGMPGLTAYFGLLDICGLKGGETVLVNAAAGAVGSVVGQIAKLKGCKVVGTAGSDEKVAYLKKLGFDVAFNYKTVKSLEEALRTASPDGYDCYFDNVGGEFSNTVILQMKTFGRIAICGAISQYNRTGPCPPGPSPEVIIYQQLRMEGFIVTRWQGEVRQKALTDLMNWVSEGKIRYHEYITEGFEKMPAAFMGMLKGDNLGKTIVKA
**Q.** Which Km [1] does the source give for B1 here?
**A.** 213 µM

**Q.** What about the Km [2] of the same protein?
**A.** 243 µM

**Q.** What about the Km [3] of the same protein?
**A.** 538 µM

**Q.** What about the Km [4] of the same protein?
**A.** 465 µM
